The source of these data is paper PMC4791852 (mBio, 2016).

This assay has as its target T1, Ebola virus GPCL trimer (thermolysin-cleaved, purified GP ectodomain) (Ebola virus (Zaire ebolavirus); GP1 …).
T1 chain 1: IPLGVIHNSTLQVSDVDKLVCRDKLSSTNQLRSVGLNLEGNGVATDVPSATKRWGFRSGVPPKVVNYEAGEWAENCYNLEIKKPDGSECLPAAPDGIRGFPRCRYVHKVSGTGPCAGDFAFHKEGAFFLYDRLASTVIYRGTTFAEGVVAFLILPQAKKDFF
T1 chain 2: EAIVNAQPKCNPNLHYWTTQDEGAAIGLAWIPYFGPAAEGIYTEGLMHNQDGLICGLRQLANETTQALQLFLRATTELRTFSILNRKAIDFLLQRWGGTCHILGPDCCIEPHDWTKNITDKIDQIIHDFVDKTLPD
As to the kind of experiment: crystal structure.

B1: KZ52 Fab (Fab, V domains shown)
VH: EVQLLESGGGLVKPGGSLRLSCAASGFTLINYRMNWVRQAPGKGLEWVSSISSSSSYIHYADSVKGRFTISRDNAENSLYLQMNSLRAEDTAVYYCVREGPRATGYSMADVFDIWGQGTMVTVSS
VL: not shown
For B1, the binding result is listed as “binds”.
